Data reported in patent publication US20240166703A1, “ANTI-INFLAMMATORY PEPTIDE AND METHOD OF USE THEREOF” (The Regents of the University of California, priority 2021, published 2024).

Molecular target: T1, polyubiquitin-dependent second interaction between NEMO and IKK2 (Homo sapiens, UniProt O14920)
T1 construct: proteins of HEK293T cells expressing full length human IKK2 were extracted; expressed in transfected cells; host or cells: HEK293T whole cell lysate supplied HA-IKK2; GST-NEMO 241-419 was expressed in E. coli Rosetta (DE3)
T1 sequence (O14920 1-756): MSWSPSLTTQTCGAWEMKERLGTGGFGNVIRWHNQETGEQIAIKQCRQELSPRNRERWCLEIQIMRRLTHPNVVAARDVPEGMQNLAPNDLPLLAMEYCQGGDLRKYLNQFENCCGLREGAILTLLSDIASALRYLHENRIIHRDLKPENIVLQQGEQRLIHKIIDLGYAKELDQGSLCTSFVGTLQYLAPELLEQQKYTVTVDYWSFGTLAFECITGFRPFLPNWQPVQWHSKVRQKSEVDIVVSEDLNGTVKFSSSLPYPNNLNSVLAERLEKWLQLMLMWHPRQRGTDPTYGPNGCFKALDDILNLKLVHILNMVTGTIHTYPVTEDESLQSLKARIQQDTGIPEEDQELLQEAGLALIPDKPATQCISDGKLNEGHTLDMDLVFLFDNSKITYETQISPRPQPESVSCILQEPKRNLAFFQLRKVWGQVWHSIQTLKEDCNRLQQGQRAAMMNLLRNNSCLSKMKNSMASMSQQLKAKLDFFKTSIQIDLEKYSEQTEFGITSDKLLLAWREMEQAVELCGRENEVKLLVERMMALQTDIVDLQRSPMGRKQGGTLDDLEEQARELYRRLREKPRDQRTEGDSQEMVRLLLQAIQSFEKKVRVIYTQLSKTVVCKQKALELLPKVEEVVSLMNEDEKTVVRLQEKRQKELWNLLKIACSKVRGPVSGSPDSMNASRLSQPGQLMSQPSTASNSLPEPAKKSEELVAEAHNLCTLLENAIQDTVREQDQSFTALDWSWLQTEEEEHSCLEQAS
Assay: Peptide in vitro GST pull-down from HA-IKK2-transfected HEK293T whole cell lysates
Type: binding
Conditions: peptide 200-25 μM
Procedure: Proteins of HEK293T cells transfected with full length human IKK2 or mutants were extracted using RIPA buffer. After centrifugation at 16,000×g for 20 minutes, the supernatants were adjusted to the binding buffer (containing 1.5 mU Hexokinase) and incubated on a rotating platform for 1 hour at 4° C. These whole-cell extracts were then incubated with E. coli-expressed GST-fusion NEMO in the absence or presence of Ub4 on a rotating platform for 2 hours at 4° C. The beads were centrifuged at 1,000×g for 2 minutes and washed four times in binding buffer. Proteins bound to beads were resuspended in SDS loading buffer, resolved by SDS-PAGE, and analyzed by western blot.
For peptide in vitro pull-down assay, proteins of HEK293T cells expressing full length human IKK2 were extracted using the same lysis buffer described above. Whole cell lysates were mixed with E. coli-expressed GST-NEMO with or without NEMO^ActPep or mNEMO^ActPep at different concentrations in the absence of presence of Ub4 and incubated on a rotating platform for 2 hours at 4° C. The beads were then washed four times in the binding buffer. Proteins bound to beads were resuspended in SDS-PAGE loading buffer, separated by SDS-PAGE, and analyzed by western blot. […]

TAT-NEMO^ActPep: HIV-1 TAT fused flexibly to human NEMO amino acids 375-391; cell permeable version of NEMO activation peptide (SEQ ID NO 2) (YGRKKRRQRRRGGLSSPLALPSQRRSPPEE)
HA-IKK2 pulled down by GST-NEMO^241-419 in the presence of Ub4 (NEMO:IKK2 second interaction, western blot): loss of this interaction was observed with increasing concentrations
